Test [1] has as its target T1, human CTLA4 expressed on the cell surface of CHO cells (human, UniProt P16410 36-223).
T1 construct: whole, on cells; also called CHO-huCTLA4; huCTLA4
T1 sequence (looked up): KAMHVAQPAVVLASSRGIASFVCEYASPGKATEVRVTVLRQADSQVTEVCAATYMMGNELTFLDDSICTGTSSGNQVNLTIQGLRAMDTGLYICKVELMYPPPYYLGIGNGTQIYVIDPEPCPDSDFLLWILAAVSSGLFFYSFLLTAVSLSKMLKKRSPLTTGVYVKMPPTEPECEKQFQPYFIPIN
Kind of test: FACS, CHO cells expressing human CTLA4 (CHO-huCTLA-4), pH 7.4, MFI; curve still rising at log 5, no plateau; no unit in the table, unit from the axis Log Antibodies [ng/ml]. The method, then: (§1) The amount of antibodies bound on the cells was quantified using anti-human IgG antibody conjugated to fluorophores. EC₅₀ values at pH 6.0 and 7.4 for binding to cells were calculated using the nonlinear fit (variable slope, four parameters) model built into GraphPad Prism software (version 7.03). The expression levels of human CTLA4 or cynomolgus CTLA4 on the surface of the CHO cells were determined using a BD QuantiBRITE™ PE kit.
At least two independent duplicate FACS experiments were performed for each antibody using each of the cell lines. The binding activities at different concentrations of the antibodies are plotted in these figures.
In general terms: Flow cytometry measures light scatter and fluorescence of single cells or particles in a stream.

Test [2] has as its target T1, human CTLA4 expressed on the cell …. Kind of test: FACS, cells expressing human CTLA4, assay pH 6.0, MFI; lot 6978 control without test buffer; same column repeated in FIG. 10E and FIG. 10F; unit from the axis Log[ng/mL]. How it is done:
(§2) The amount of bound antibodies was quantified using anti-human IgG antibody conjugated to fluorophores. The MFI in each reaction was proportional to the amount of antibodies bound. The EC₅₀ value (in ng/mL) for binding to human CTLA4 on cells was determined by MFI of the singlets population against antibody concentration with a Prism variable slope of four-parameter dose-response curve, which was calculated using the nonlinear fit (variable slope, four parameters) model built into GraphPad Prism software (version 7.03).

Test [3] deals with T2, recombinant human CTLA4 extracellular domain (human, UniProt P16410 36-161).
T2 construct: extracellular domain; also called huCTLA-4
T2 sequence (looked up): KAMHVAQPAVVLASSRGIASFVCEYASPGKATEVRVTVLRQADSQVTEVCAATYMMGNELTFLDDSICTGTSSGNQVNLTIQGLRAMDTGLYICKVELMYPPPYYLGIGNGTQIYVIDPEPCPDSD
Kind of test: ELISA, wells coated with human CTLA4, assay pH 7.4; lot 6978 in Glu buffer, T2W; curve still rising at log 3 (OD450 at most about 0.3), no plateau; unit from the axis Log[ng/mL]. How it is done:
(§3) Both ELISA and FACS analysis were used to measure the binding activity. […] The amount of bound antibodies was quantified using anti-human IgG antibody conjugated to HRP. The absorbance at 450 nm in each measurement was proportional to the amount of antibodies bound. […] EC50 value (in ng/mL) for binding to human CTLA4 was determined by absorbance at 450 nm against antibody concentration with Prism variable slope of four-parameter dose-response curve, which was calculated using the nonlinear fit (variable slope, four parameters) model built into GraphPad Prism software (version 7.03). The buffers tested included His buffer (His), Tris buffer (Tris), Glutamine buffer (Glu) and no buffer.

The target of test [4] is T1, human CTLA4 expressed on the cell …. Kind of test: FACS, cells expressing human CTLA4, assay pH 6.0, MFI; lot 6978 in Glu buffer, T2W; unit from the axis Log[ng/mL]. How it is done: as §2
The target in test [5] is T2, recombinant human CTLA4 extracellular …. Kind of test: ELISA, wells coated with human CTLA4, assay pH 6.0; lot 6978 in His buffer, T0; unit from the axis Log[ng/mL]. How it is done: as §3
Background: In an ELISA, binding on a coated surface is turned into a signal by an enzyme label.

The target is the same in test [6]. Kind of test: ELISA, wells coated with human CTLA4, assay pH 6.0; lot 6978 in Tris buffer, T2W; unit from the axis Log[ng/mL]. How it is done: as §3
The target in test [7] is T3, cynomolgus CTLA4 expressed on the cell surface of CHO cells (cynomolgus, UniProt G7PL88 36-223).
T3 construct: whole, on cells; also called CHO-cynoCTLA4
T3 sequence: T1 sequence (looked up) with S14N, I18T, L106M
Kind of test: FACS saturation, CHO-cynoCTLA-4, pH 7.4, MFI, titration up to about log 6.5; reaches about 330000 against about 700000 for Ipi Analogue; no unit in the table, unit from the axis Log Antibodies [ng/ml]. The method, then: as §1
Finally, saturations of the antibodies on the CHO cells expressing human or cynomolgus CTLA4 at pH 7.4 were also measured by FACS (FIGS. 8A-8B).

Test [8] has as its target T2, recombinant human CTLA4 extracellular …. Kind of test: ELISA, wells coated with human CTLA4, assay pH 6.0; lot 6972 in His buffer, T0; unit from the axis Log[ng/mL]. How it is done:
as §3

Test [9] deals with T1, human CTLA4 expressed on the cell …. In words: FACS, cells expressing human CTLA4, assay pH 6.0, MFI; lot 6972 in His buffer, T0; unit from the axis Log[ng/mL]. The method, then: as §2
Test [10] shares this target. Kind of test: FACS, cells expressing human CTLA4, assay pH 7.4, MFI; lot 6972 control without test buffer; same column repeated in FIG. 10B and FIG. 10C; unit from the axis Log[ng/mL]. How it is done:
as §2

The target is the same in test [11]. In words: FACS, cells expressing human CTLA4, assay pH 6.0, MFI; lot 6972 in Glu buffer, T2W; unit from the axis Log[ng/mL]. The method, then:
as §2

Positions count from the first letter of the chain named.

B1: BA-087-08-32 (antibody, V domains shown)
VH: EVQLVQSGAEVKKPGATVKISCKVSGFTFSHYTMHWIRQSPSRGLEWLGFISYDGNYKYYADSVKGRFTISRDNAKNSLYLQMNSLRAEDTAVYYCARTGWLGPFDYWGQGTLVTVSS
VL: EIVMTQSPATLSVSPGERATLSCRASQSVGSSYLAWYQQKPGKAPKLLIYGAFSRATGVPSRFSGSGSGTDFTLTISSLQPEDFATYYCQQDGSSPWTFGQGTKVEIK
notes: Detected with anti-human IgG and a molecular weight of 146 kDa was used in SPR, so it was tested as a whole IgG; also called BA-087-08-032; BA-087-08-32 (# 6978)
Turning to B1, the EC50 (commonly the midpoint of the concentration-response curve) was 41.1 µg/mL in [1]; 0.158 µg/mL in test [2]; 0.724 µg/mL in test [3]; 0.176 µg/mL in test [4]; 0.038 µg/mL in [5]; 0.014 µg/mL in [6].

B2: BA-087-05-19 (antibody, V domains shown)
VH: EVQLVESGGGLVQPGGSLRLSCAASGFTFSHYTMHWVRQAPGKGLEWVSFISYDGNNKYYADSVKGRFTISRDNSKNTLYLQMNSLRAEDTAVYYCARTGWLGPFDYWGQGTLVTVSS
VL: AIQLTQSPSSLSASVGDRVTITCRASQYVGSSYLAWYLQKPGQSPQLLIYGAFSRATGIPARFSGSGSGTEFTLTISSLQSEDFAVYYCQQDGSSPWTFGQGTKVEIK
notes: Detected with anti-human IgG and a molecular weight of 146 kDa was used in SPR, so it was tested as a whole IgG; also called BA-087-05-019; BA-087-05-19 (# 6972)
Regarding B2, the EC50 in test [7] turned out to be 13 µg/mL; in test [8], 0.0154 µg/mL; in test [9], 0.291 µg/mL; in [10] it was 0.428 µg/mL; in test [11] it was 0.267 µg/mL.

Values taken from patent publication US20210403565A1 (BIOATLA, published 2021).
